Data reported in patent publication US20240366728A1, “Treatment of Diabetes Mellitus” (Carmot Therapeutics Inc., priority 2023, published 2024).

Molecular target: mouse GLP-1R (mouse) (UniProt O35659)
Experiment: cell-based or functional assay

mouse GLP-1R (mouse), sequence (O35659 22-463): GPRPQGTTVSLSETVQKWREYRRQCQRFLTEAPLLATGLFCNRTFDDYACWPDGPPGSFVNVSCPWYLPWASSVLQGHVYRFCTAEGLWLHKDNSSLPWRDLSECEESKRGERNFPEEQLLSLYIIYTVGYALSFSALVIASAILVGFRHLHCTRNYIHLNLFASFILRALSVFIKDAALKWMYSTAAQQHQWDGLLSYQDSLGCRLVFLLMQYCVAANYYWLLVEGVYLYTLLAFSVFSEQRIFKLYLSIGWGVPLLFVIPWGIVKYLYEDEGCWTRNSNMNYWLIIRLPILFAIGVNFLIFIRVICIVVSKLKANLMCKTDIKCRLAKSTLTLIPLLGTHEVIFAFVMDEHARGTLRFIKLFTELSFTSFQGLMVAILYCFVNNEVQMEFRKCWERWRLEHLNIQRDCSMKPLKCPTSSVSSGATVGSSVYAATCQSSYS

| cAMP accumulation EC50 | β-arrestin-2 recruitment | mGLP-1R cAMP (-alb) % Emax | mGLP-1R β-arrestin-2 % Emax | Substance |
| --- | --- | --- | --- | --- |
| 3 pM | 99% | – | – | Human GLP-1 (7-36) (from UniProt P01275 21-180) (ligand) |
| – | – | 92% | 80.7% | Liraglutide (peptide) |
